Laboratory results from paper PMC9918506, “Structural insights into pathogenic mechanism of hypohidrotic ectodermal dysplasia caused by ectodysplasin A variants” (Nature Communications, 2023).

B1: EDA·A1 TNF homology domain (EDA·A1THD, residues 233–391), wild type [human] / EDAR cysteine-rich domains (EDAR_(CRDS), residues 30–150), MBP tag removed [human] (parent)
chain 1: GPSGAADKAGTRENQPAVVHLQGQGSAIQVKNDLSGGVLNDWSRITMNPKVFKLHPRSGELEVLVDGTYFIYSQVEVYYINFTDFASYEVVVDEKPFLQCTRSIETGKTNYNTCYTAGVCLLKARQKIAVKMVHADISINMSKHTTFFGAIRLGEAPAS
chain 2: GGSGGSGGSGGSNCGENEYYNQTTGLCQECPPCGPGEEPYLSCGYGTKDEDYGCVPCPAEKFSKGGYQICRRHKDCEGFFRATVLTPGDMENDAECGPCLPGYYMLENRPRNIYGMVCYSCLLAPPNTKECVG

Variants of: B1
Assay: SPR
Settings: with EDAR cysteine-rich domains (EDAR_(CRDS), residues 30–150), 50, 25, 12.5, 6.25, 3.125 nM

Row | Kd [nM] | Variant
1 | 35.9 | chain 1 R44C
